The assay has as its target Anbu-1 protein from Pseudomonas aeruginosa (Pa-Anbu), wild type (Pseudomonas aeruginosa PAO1). The assay can be described thus: SEC-MALS; static light scattering after Superdex S200 10/300 GL; 100 µl protein at 0.5, 1 or 2 mg/ml; 30 mM MOPS/NaOH pH 7.2, 150 mM NaCl; three independent experiments.

We go through one substance from PMC5666114.

As a reminder, the stoichiometry N is a count of units in the complex or per binding partner.

In the case of “Anbu-1 protein from Pseudomonas aeruginosa (Pa-Anbu), wild type (natural protein)”, the stoichiometry N is 12.
